Data reported in publication PMC7325057.

Test system: CC(=O)N(O)CCCC[C@H](N)C(=O)O
Assay: purified protein
Conditions: 2 mM citrate, 2 mM ATP, 15 mM MgCl2, pH 7.5, 37 °C, apparent

hvKP IucA (Klebsiella pneumoniae subsp. pneumoniae)
Km: 790 ± 20 µM | kcat: 0.85 ± 0.02 s⁻¹ | kcat/Km: 1080 M⁻¹ s⁻¹
